Here are results for one protein from ChEMBL document CHEMBL4476871, “SULFAMIDE AND SULFAMATE INHIBITORS OF hHint1” (2018).

Compound in series [1]: Nc1nc2c(ncn2[C@@H]2O[C@H](COP(=O)(O)NCCc3c[nH]c4ccccc34)[C@@H](O)[C@H]2O)c(=O)[nH]1
Description: (§1) Inhibition of full-length human N-terminal His6-tagged Hint1 expressed in Escherichia coli Rosetta 2 pLysS cells assessed as ratio of Kcat to Km.

Compound in series [2]: Nc1ncnc2c1ncn2[C@@H]1O[C@H](COP(=O)(O)OC(=O)CCc2c[nH]c3ccccc23)[C@@H](O)[C@H]1O
The series is described as §1.

B1: Adenosine 5'-monophosphoramidase HINT1 (Homo sapiens), P49773 (protein)
chain: MADEIAKAQVARPGGDTIFGKIIRKEIPAKIIFEDDRCLAFHDISPQAPTHFLVIPKKHISQISVAEDDDESLLGHLMIVGKKCAADLGLNKGYRMVVNEGSDGGQSVYHVHLHVLGGRQMHWPPG
For the protein B1, the kcat/Km in series [1] and in series [2] was 1.1 ×10⁷ /M/s throughout.
